Results published in US20230256092A1, “COMBINED USE OF ANTI-CCR8 ANTIBODY AND CHEMOTHERAPEUTIC AGENT” (Shionogi & Co., Ltd., priority 2020, published 2023).
Substitutions are numbered along the chain they refer to. Numbers in names are those of the source.

B1: h10A11 (IGKV4-1/IGHV3-73 T31A) (antibody, name in Kabat numbering, V domains shown)
VH: EVQLVESGGGLVQPGGSLKLSCAASGFAFNAYALYWVRQASGKGLEWVGRIRSKSNNYATYYADSVKDRFTISRDDSKNTAYLQMNSLKTEDTAVYYCTRARFYYSDYGYAMDYWGQGTLVTVSS
VL: DIVMTQSPDSLAVSLGERATINCRSSKSLLHSNGNTYLYWYQQKPGQPPKLLIYRMSNLASGVPDRFSGSGSGTDFTLTISSLQAEDVAVYYCMQHLEYPLTFGQGTKLEIKR
B2: h10A11 (IGKV4-1/IGHV3-73 Y102F) (antibody, name in Kabat numbering, V domains shown)
VH: B1 VH with A31T, Y114F
VL: B1 VL
B3: h10A11 (IGKV4-1/IGHV3-73 G100cA) (antibody, name in Kabat numbering, V domains shown)
VH: B1 VH with A31T, G109A
VL: B1 VL
B4: h10A11 (IGKV4-1/IGHV3-73 S52cT) (antibody, name in Kabat numbering, V domains shown)
VH: B1 VH with A31T, S55T
VL: B1 VL
B5: h10A11 (IGKV4-1/IGHV3-73 L34I) (antibody, name in Kabat numbering, V domains shown)
VH: B1 VH with A31T, L34I
VL: B1 VL
B6: h10A11 (IGKV4-1/IGHV3-73 D65E) (antibody, name in Kabat numbering, V domains shown)
VH: B1 VH with A31T, D68E
VL: B1 VL
B7: h10A11 (IGKV4-1/IGHV3-73 R96K) (antibody, name in Kabat numbering, V domains shown)
VH: B1 VH with A31T, R102K
VL: B1 VL
B8: h10A11 (IGKV4-1/IGHV3-73 Y100dF) (antibody, name in Kabat numbering, V domains shown)
VH: B1 VH with A31T, Y110F
VL: B1 VL
B9: h10A11 (IGKV4-1/IGHV3-73 N53Q) (antibody, name in Kabat numbering, V domains shown)
VH: B1 VH with A31T, N56Q
VL: B1 VL
B10: h10A11 (IGKV4-1/IGHV3-73 A56V) (antibody, name in Kabat numbering, V domains shown)
VH: B1 VH with A31T, A59V
VL: B1 VL
B11: h10A11 (IGKV4-1/IGHV3-73 Y100bF) (antibody, name in Kabat numbering, V domains shown)
VH: B1 VH with A31T, Y108F
VL: B1 VL
B12: h10A11 (IGKV4-1/IGHV3-73 S62T) (antibody, name in Kabat numbering, V domains shown)
VH: B1 VH with A31T, S65T
VL: B1 VL
B13: h10A11 (IGKV4-1/IGHV3-73 Y32F) (antibody, name in Kabat numbering, V domains shown)
VH: B1 VH with A31T, Y32F
VL: B1 VL
B14: h10A11 (IGKV4-1/IGHV3-73 T57S) (antibody, name in Kabat numbering, V domains shown)
VH: B1 VH with A31T, T60S
VL: B1 VL
B15: h10A11 (IGKV4-1/IGHV3-73 D100aE) (antibody, name in Kabat numbering, V domains shown)
VH: B1 VH with A31T, D107E
VL: B1 VL
B16: h10A11 (IGKV4-1/IGHV3-73 S100T) (antibody, name in Kabat numbering, V domains shown)
VH: B1 VH with A31T, S106T
VL: B1 VL
B17: h10A11 (IGKV4-1/IGHV3-73 I51L) (antibody, name in Kabat numbering, V domains shown)
VH: B1 VH with A31T, I51L
VL: B1 VL
B18: h10A11 (IGKV4-1/IGHV3-73 A60V) (antibody, name in Kabat numbering, V domains shown)
VH: B1 VH with A31T, A63V
VL: B1 VL
B19: h10A11 (IGKV4-1/IGHV3-73 Y55F) (antibody, name in Kabat numbering, V domains shown)
VH: B1 VH with A31T, Y58F
VL: B1 VL
B20: h10A11 (IGKV4-1/IGHV3-73 R52K) (antibody, name in Kabat numbering, V domains shown)
VH: B1 VH with A31T, R52K
VL: B1 VL
B21: h10A11 (IGKV4-1/IGHV3-73 Y98F) (antibody, name in Kabat numbering, V domains shown)
VH: B1 VH with A31T, Y104F
VL: B1 VL
B22: h10A11 (IGKV4-1/IGHV3-73 S52aT) (antibody, name in Kabat numbering, V domains shown)
VH: B1 VH with A31T, S53T
VL: B1 VL
B23: h10A11 (IGKV4-1/IGHV3-73 R50K) (antibody, name in Kabat numbering, V domains shown)
VH: B1 VH with A31T, R50K
VL: B1 VL
B24: h10A11 (IGKV4-1/IGHV3-73 F97L) (antibody, name in Kabat numbering, V domains shown)
VH: B1 VH with A31T, F103L
VL: B1 VL
B25: h10A11 (IGKV4-1/IGHV3-73 Y58F) (antibody, name in Kabat numbering, V domains shown)
VH: B1 VH with A31T, Y61F
VL: B1 VL
B26: h10A11 (IGKV4-1/IGHV3-73 V63L) (antibody, name in Kabat numbering, V domains shown)
VH: B1 VH with A31T, V66L
VL: B1 VL
B27: h10A11 (IGKV4-1/IGHV3-73 A100eV) (antibody, name in Kabat numbering, V domains shown)
VH: B1 VH with A31T, A111V
VL: B1 VL
B28: h10A11 (IGKV4-1/IGHV3-73 D101E) (antibody, name in Kabat numbering, V domains shown)
VH: B1 VH with A31T, D113E
VL: B1 VL
B29: h10A11 (IGKV4-1/IGHV3-73 D61E) (antibody, name in Kabat numbering, V domains shown)
VH: B1 VH with A31T, D64E
VL: B1 VL
B30: h10A11 (IGKV4-1/IGHV3-73 K64R) (antibody, name in Kabat numbering, V domains shown)
VH: B1 VH with A31T, K67R
VL: B1 VL
B31: h10A11 (IGKV4-1/IGHV3-73 M100fL) (antibody, name in Kabat numbering, V domains shown)
VH: B1 VH with A31T, M112L
VL: B1 VL
B32: h10A11 (IGKV4-1/IGHV3-73 Y99F) (antibody, name in Kabat numbering, V domains shown)
VH: B1 VH with A31T, Y105F
VL: B1 VL
B33: h10A11 (IGKV4-1/IGHV3-73 A33V) (antibody, name in Kabat numbering, V domains shown)
VH: B1 VH with A31T, A33V
VL: B1 VL
B34: h10A11 (IGKV4-1/IGHV3-73 Y35F) (antibody, name in Kabat numbering, V domains shown)
VH: B1 VH with A31T, Y35F
VL: B1 VL
B35: h10A11 (IGKV4-1/IGHV3-73 K52bR) (antibody, name in Kabat numbering, V domains shown)
VH: B1 VH with A31T, K54R
VL: B1 VL
B36: h10A11 (IGKV4-1/IGHV3-73 Y59F) (antibody, name in Kabat numbering, V domains shown)
VH: B1 VH with A31T, Y62F
VL: B1 VL

Molecular target: human CCR8 (human) (UniProt P51685)
Assay: cell-based or functional assay

Row | IC50 ratio (WT IC50/mutant IC50) | IC50 (n.d. = IC50 of the mutant is 10 nM or more) [nM] | Binder
1 | 0.17 |  | B1
2 | 0.99 |  | B2
3 | 0.07 |  | B3
4 | 0.53 |  | B4
5 | 0.43 |  | B5
6 | 1.3 |  | B6
7 |  | > 10 | B7
8 | 0.55 |  | B8
9 | 0.03 |  | B9
10 | 0.55 |  | B10
11 | 0.75 |  | B11
12 | 1.6 |  | B12
13 | 0.44 |  | B13
14 | 0.49 |  | B14
15 | 0.3 |  | B15
16 | 0.64 |  | B16
17 | 0.22 |  | B17
18 | 0.67 |  | B18

Row | IC50 ratio (WT IC50/mutant IC50) | IC50 (n.d. = IC50 of the mutant is 10 nM or more) [nM] | Binder
19 | 0.47 |  | B19
20 |  | > 10 | B20
21 | 0.07 |  | B21
22 | 0.22 |  | B22
23 | 0.12 |  | B23
24 |  | > 10 | B24
25 | 0.5 |  | B25
26 | 0.56 |  | B26
27 | 0.49 |  | B27
28 |  | > 10 | B28
29 | 0.25 |  | B29
30 | 0.54 |  | B30
31 | 0.72 |  | B31
32 | 0.8 |  | B32
33 |  | > 10 | B33
34 |  | > 10 | B34
35 | 0.47 |  | B35
36 | 0.03 |  | B36
